In patent publication US6479032 (DIATIDE, dated 2002):
Starred links: 1 amine or outer side, 2 acyl side, 3 side chain; linkers in the order of their positions; H or OH if unused. Positions of bridges follow the written chain, without caps; N, C: chain ends. Non-standard residues stand in square brackets, D forms with d. Groups on a side chain read outwards from the residue. No end group written: not given here. Hhc = homohomocysteine, O=C([C@H](CCCS[*:3])N[*:1])[*:2]; εLys = N[C@@H](CCCCN[*:1])C(=O)[*:2]; Asu = N[C@@H](CCCCCC(=O)O)C(=O)O; hCys = N[C@@H](CCS)C(=O)O

Key:
[1] = target: T1, CT receptor of human breast tumor cell lines T-47D and MCF-7 (human, UniProt P30988 25-474); assay: displacement of 125I-salmon CT, T-47D cell membranes
T1 construct: whole, on cells; Native receptor; also called calcitonin receptor
T1 sequence (looked up): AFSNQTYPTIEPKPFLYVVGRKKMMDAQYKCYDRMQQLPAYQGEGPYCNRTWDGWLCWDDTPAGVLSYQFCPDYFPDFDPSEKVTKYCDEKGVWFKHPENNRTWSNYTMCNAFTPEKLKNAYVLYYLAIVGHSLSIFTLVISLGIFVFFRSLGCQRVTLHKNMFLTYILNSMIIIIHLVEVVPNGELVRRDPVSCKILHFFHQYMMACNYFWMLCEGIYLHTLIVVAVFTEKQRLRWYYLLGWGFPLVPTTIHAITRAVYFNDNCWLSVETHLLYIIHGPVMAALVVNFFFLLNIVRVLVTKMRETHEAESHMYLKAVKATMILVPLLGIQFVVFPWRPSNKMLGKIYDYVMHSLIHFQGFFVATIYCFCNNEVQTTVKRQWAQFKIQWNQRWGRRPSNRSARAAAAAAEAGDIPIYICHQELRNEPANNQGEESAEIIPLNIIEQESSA
Excerpt: (§1) Assays using microsomal membrane fractions of rat brain and T47D cells (obtained from the American Type Culture Collection, Rockville, Md., ATCC Accession No. HTB-133) were used to identify analogs with high affinity for the CT receptor according to the method of Fisher et al. (1977, *British J. Cancer* 35: 777–784). Briefly, tissue was minced and homogenized. The membranes were washed several times, assayed for protein content and used in the binding assay. […] Both uncomplexed and ReO complexed reagents were tested.
(§2) Similar experiments were performed with additional peptide reagents within the scope of the invention, using whole cells. Binding was determined as described above.

[2] = target: T1, CT receptor of human breast tumor cell …; assay: displacement of 125I-salmon CT, whole MCF-7 cells
Excerpt: as §1, §2

[3] = target: T1, CT receptor of human breast tumor cell …; assay: displacement of 125I-salmon CT, whole T-47D cells
Excerpt: as §1, §2

Q: For {CH2CO}-SNLST[Hhc]VLGKLSCELHKLQTYPRTNTGSGTP-NH2 (thioether N-6, also called Peptide 3) [CH2CO.SNLST.Hhc.VLGKLSCELHKLQTYPRTNTGSGTP.amide], which IC50 [1] is on record?
A: The IC50 was 1.6 nM.

Q: For {CH2CO}-SNLST[Hhc]VLGKLSC([CH2CO-Gly-Gly-Cys-Lys-NH2])ELHKLQTYPRTNTGSGTP-NH2 (thioether N-6, also called Peptide 4) [CH2CO.SNLST.Hhc.VLGKLSC(CH2CO.GGCK.amide)ELHKLQTYPRTNTGSGTP.amide], which IC50 [1] is on record?
A: The IC50 was 2.6 nM.

Q: With {CH2CO}-SNLST[Hhc]VLGKLSC([CH2CO-βDap-Lys-Cys-Lys-NH2])ELHKLQTYPRTNTGSGTP-NH2 (thioether N-6, also called Peptide 5) [CH2CO.SNLST.Hhc.VLGKLSC(CH2CO.(β-Dap)KCK.amide)ELHKLQTYPRTNTGSGTP.amide] as the binder, how does the IC50 [2] read?
A: The IC50 was 5.8 nM.

Q: What about the IC50 [3] of the same binder?
A: The IC50 was 0.42 nM.

B1: CH2CO.SNLST.Hhc.VLGKLSC(CH2CO.(ε-K)GCE.amide)ELHKLQTYPRTNTGSGTP.amide•ReO (peptide)
peptide: {CH2CO}-SNLST[Hhc]VLGKLSC([CH2CO-εLys-Gly-Cys-Glu-NH2])ELHKLQTYPRTNTGSGTP-NH2
modifications: thioether N-6; also: ReO complex of chelator on Cys13
notes: Oxorhenium complex; also called Peptide 6 ReO complex
Q: How did the IC50 [2] turn out when B1 was run?
A: The IC50 was 3.3 nM.

Q: And the IC50 [3]?
A: The IC50 was 0.33 nM.

B2: CH2CO.SNLST.Hcy.VLGKLSC(CH2CO.GGCK.amide)ELHKLQTYPRTNTGSGTP.amide•ReO (peptide)
peptide: {CH2CO}-SNLST[hCys]VLGKLSC([CH2CO-Gly-Gly-Cys-Lys-NH2])ELHKLQTYPRTNTGSGTP-NH2
modifications: thioether N-6; also: ReO complex of chelator on Cys13
notes: Oxorhenium complex; also called Peptide 8 ReO complex
Q: With B2 as the binder, how does the IC50 [2] read?
A: The IC50 was 4.8 nM.

Q: What about the IC50 [3] of the same binder?
A: Its IC50 is 0.83 nM.

B3: CH2CO.SNLST.Hcy.VLGKLSC(CH2CO.(β-Dap)KCK.amide)ELHKLQTYPRTNTGSGTP.amide•ReO (peptide)
peptide: {CH2CO}-SNLST[hCys]VLGKLSC([CH2CO-βDap-Lys-Cys-Lys-NH2])ELHKLQTYPRTNTGSGTP-NH2
modifications: thioether N-6; also: ReO complex of chelator on Cys13
notes: Oxorhenium complex; also called Peptide 9 ReO complex
Q: With B3 as the binder, how does the IC50 [3] read?
A: Its IC50 is 0.84 nM.

B4: CH2CO.SNLST.Hcy.VLGKLSC(CH2CO.(ε-K)GCE.amide)ELHKLQTYPRTNTGSGTP.amide•ReO (peptide)
peptide: {CH2CO}-SNLST[hCys]VLGKLSC([CH2CO-εLys-Gly-Cys-Glu-NH2])ELHKLQTYPRTNTGSGTP-NH2
modifications: thioether N-6; also: ReO complex of chelator on Cys13
notes: Oxorhenium complex; also called Peptide 10 ReO complex
Q: For B4, which IC50 [3] is on record?
A: Its IC50 is 0.89 nM.

B5: CH2CO.SNLST.Cys.VLGKLSC(CH2CO.GGCK.amide)ELHKLQTYPRTNTGSGTP.amide•ReO (peptide)
peptide: {CH2CO}-SNLSTCVLGKLSC([CH2CO-Gly-Gly-Cys-Lys-NH2])ELHKLQTYPRTNTGSGTP-NH2
modifications: thioether N-6; also: ReO complex
notes: Oxorhenium complex; also called Peptide 12 ReO complex
Q: What does the source list for B5?
A: IC50 [2]: 5.2 nM; IC50 [3]: 1 nM

B6: CH2CO.SNLST.Cys.VLGKLSC(CH2CO.(β-Dap)KCK.amide)ELHKLQTYPRTNTGSGTP.amide•ReO (peptide)
peptide: {CH2CO}-SNLSTCVLGKLSC([CH2CO-βDap-Lys-Cys-Lys-NH2])ELHKLQTYPRTNTGSGTP-NH2
modifications: thioether N-6; also: ReO complex
notes: Oxorhenium complex; also called Peptide 13 ReO complex
Q: B6 was tested. Which IC50 [3] did it give?
A: Its IC50 is 2.9 nM.

B7: CH2CO.SNLST.Cys.VLGKLSC(CH2CO.(ε-K)GCE.amide)ELHKLQTYPRTNTGSGTP.amide•ReO (peptide)
peptide: {CH2CO}-SNLSTCVLGKLSC([CH2CO-εLys-Gly-Cys-Glu-NH2])ELHKLQTYPRTNTGSGTP-NH2
modifications: thioether N-6; also: ReO complex
notes: Oxorhenium complex; also called Peptide 14 ReO complex
Q: Which IC50 [2] does the source give for B7 here?
A: Its IC50 is 1.9 nM.

Q: And the IC50 [3]?
A: Its IC50 is 2.6 nM.

B8: SNLST.Asu.VLGKLSC(CH2CO.(β-Dap)KCK.amide)ELHKLQTYPRTNTGSGTP.amide•ReO (peptide)
peptide: SNLST[Asu]VLGKLSC([CH2CO-βDap-Lys-Cys-Lys-NH2])ELHKLQTYPRTNTGSGTP-NH2
modifications: lactam N-6; also: ReO complex of chelator on Cys13
notes: Oxorhenium complex; also called Peptide 16 ReO complex
Q: Which IC50 [2] does the source give for B8 here?
A: The IC50 was 8 nM.

Q: And the IC50 [3]?
A: The IC50 was 2.7 nM.

B9: SNLST.Asu.VLGKLSC(CH2CO.(β-Dap)KCK.amide)ELHKLQTYPRTDVGAGTP.amide•ReO (peptide)
peptide: SNLST[Asu]VLGKLSC([CH2CO-βDap-Lys-Cys-Lys-NH2])ELHKLQTYPRTDVGAGTP-NH2
modifications: lactam N-6; also: ReO complex of chelator on Cys13
notes: Oxorhenium complex; also called Peptide 18 ReO complex
Q: Which results are given for B9?
A: IC50 [2]: 7 nM; IC50 [3]: 0.55 nM

B10: CSNLSTCVLGKLSQELHKLQTYPRTNTGSGTP-NH2 (salmon calcitonin) (ligand)
peptide: CSNLSTCVLGKLSQELHKLQTYPRTNTGSGTP-NH2
modifications: disulfide 1-7
notes: Unlabeled salmon calcitonin, bought (Sigma); also called salmon CT; sCT
Q: Which IC50 [2] does the source give for B10 here?
A: Its IC50 is 12.3 nM.
